Results reported in patent publication US20190091296.

Key:
[1] = target: Comparator: GLP1 analogue having the amino acid sequence characteristics of LY2189265 fused to hIgG4 Fc domain
Comparator: GLP1 analogue having the amino acid sequence characteristics of LY2189265 fused to hIgG4 Fc domain, sequence (chain, as listed by the source): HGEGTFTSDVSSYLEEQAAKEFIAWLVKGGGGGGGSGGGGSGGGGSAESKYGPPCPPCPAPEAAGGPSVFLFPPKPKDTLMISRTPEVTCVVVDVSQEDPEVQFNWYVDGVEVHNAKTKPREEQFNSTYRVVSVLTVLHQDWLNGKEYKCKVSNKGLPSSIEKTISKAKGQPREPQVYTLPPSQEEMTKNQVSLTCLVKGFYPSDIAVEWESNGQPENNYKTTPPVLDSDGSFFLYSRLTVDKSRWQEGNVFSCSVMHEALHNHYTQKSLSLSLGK

B1: recombinant human DPP4 (protein)
chain: SRKTYTLTDYLKNTYRLKLYSLRWISDHEYLYKQENNILVFNAEYGNSSVFLENSTFDEFGHSINDYSISPDGQFILLEYNYVKQWRHSYTASYDIYDLNKRQLITEERIPNNTQWVTWSPVGHKLAYVWNNDIYVKIEPNLPSYRITWTGKEDIIYNGITDWVYEEEVFSAYSALWWSPNGTFLAYAQFNDTEVPLIEYSFYSDESLQYPKTVRVPYPKAGAVNPTVKFFVVNTDSLSSVTNATSIQITAPASMLIGDHYLCDVTWATQERISLQWLRRIQNYSVMDICDYDESSGRWNCLVARQHIEMSTTGWVGRFRPSEPHFTLDGNSFYKIISNEEGYRHICYFQIDKKDCTFITKGTWEVIGIEALTSDYLYYISNEYKGMPGGRNLYKIQLSDYTKVTCLSCELNPERCQYYSVSFSKEAKYYQLRCSGPGLPLYTLHSSVNDKGLRVLEDNSALDKMLQNVQMPSKKLDFIILNETKFWYQMILPPHFDKSKKYPLLLDVYAGPCSQKADTVFRLNWATYLASTENIIVASFDGRGSGYQGDKIMHAINRRLGTFEVEDQIEAARQFSKMGFVDNKRIAIWGWSYGGYVTSMVLGSGSGVFKCGIAVAPVSRWEYYDSVYTERYMGLPTPEDNLDHYRNSTVMSRAENFKQVEYLLIHGTADDNVHFQQSAQISKALVDVGVDFQAMWYTDEDHGIASSTAHQHIYTHMSHFIKQCFSLP
Cleavage % after 4 hours (Q-GLP1-hFc): 0%
Cleavage % after 72 hours (Q-GLP1-hFc): 0%
Cleavage % after 4 hours [1]: 4%
Cleavage % after 72 hours [1]: 41%
